In article PMC7058303:

Target: Sus1 from S. cerevisiae (recombinant) (Saccharomyces cerevisiae) (UniProt Q6WNK7)
Experiment: SEC; Superdex 75 10/300 GL, calibrated with molecular weight markers; non-dissociating conditions; elution volume 12 ml

stoichiometry N: 3
Substance: Sus1 from S. cerevisiae (recombinant) (from UniProt Q6WNK7 1-96) (natural protein)
